Measured values as given in the supplement of paper PMC9170038.

Tested on: MS2 coat protein
Assay: apparent KD of MS2 coat protein; designed switch direction (-1 OFF switch, 1 ON switch): -1; higher = weaker reporter binding
How it was run: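 Designed RNA switches with common flanks were made on Illumina chips by stalled E. coli RNA polymerase. Titration with SNAP-549-labelled MS2 coat protein doubled from 0.7 or 1.5 nM up to 3 µM. Apparent KD is each design's median over clusters after curve-fitting normalised fluorescence.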

[1] = Eterna round: R95, input ligand: FMN 200 uM
[2] = Eterna round: R95, input ligand: microRNA oligo, concentration not stated
[3] = Eterna round: R95, input ligand: none
[4] = input ligand: microRNA oligo, concentration not stated

Sequence	apparent KD of MS2 coat protein [2]	apparent KD of MS2 coat protein (input ligand: FMN 200 uM)	apparent KD of MS2 coat protein (input ligand: none)	also measured
UUUAAUUUUUUUUUUUUACAAGCUUUUUGCUCGUCUUAUACAUGAGGAUCACCCAUGUGGGUAAAGGGUAAAUUAUC [JMF 80] (puzzle: Sensor v3, turn-off variant 2)	50.9 nM	–	–	apparent KD of MS2 coat protein [1]: 23 nM; apparent KD of MS2 coat protein [3]: 20.9 nM
UUUACAAGCUAUUGAUCCCACAUGAGGAUCACCCAUGUUCCUGGCCGUGAGGCUAGGUAAACAAUUGCUCGUCUUAU [JL TOV1 3.69] (Eterna round: R97, puzzle: Sensor, turn-off variant 1)	–	903 nM	1370 nM	–
UUUACAAGCUUAUGAUCCCACAUGAGGAUCACCCAUGUUGCUGCCGGUGACGGUAGCAUAACAUAUGCUCGUCUUAU [JL TOV1 3.57] (Eterna round: R97, puzzle: Sensor, turn-off variant 1)	–	1570 nM	1840 nM	–
UUUAGUUUAGGAUAUGUAGACAUUAACAUGAGGAUCACCCAUGUAGAUCCUGAAUUGGCUACAGAAGGAAGCAUUU [Mod of Brourd 11 - Jieux - Exclusion 5] (Eterna round: R97, puzzle: Exclusion 5)	–	168 nM	354 nM	–
UUUAGUUUAGGAUAUGUAGAUUUUAACAUGAGGAUCACCCAUGUAGAUCCUGAAUUAACUACAGAAGGGAACAUUU [Mod of Brourd 14 - Jieux - Exclusion 5] (Eterna round: R97, puzzle: Exclusion 5)	–	124 nM	154 nM	–
UUUAUGUAAGGAUAUAUGGGUUUAAAUGAAAAUUUGGGCCCAUAGAAGGUACAUGAGGAUCACCCAUGUAGUGG [-24.4, -24.3 kcal, 32% A] (Eterna round: R97, puzzle: Exclusion 4)	–	474 nM	641 nM	–
UUUCCACAUGAGGAUCACCCAUGUCAGGAUAUUAUAGUUGGCCGAAAGGCGUCAGUGGUAAGAAGGGACGUUGA [Eternabot (L2) Solution 46] (Eterna round: R97, puzzle: Exclusion 1)	–	16.1 nM	15.8 nM	–
UUUCUUCAUAUCACAUGAGGAUCACCCAUGUUAUUCAUCGCGUAGGAUAUCGAGAAUUUUAAAUACGAGAAGGACGUAUUGAUA [JR_ExcNG3_Sub072] (Eterna round: R96, puzzle: Exclusion NG 3)	–	43.4 nM	38.8 nM	apparent KD of MS2 coat protein [4]: 31.1 nM
UUUGUUGUUGUGAGGAUAUACUGUUUGUUUUGUUUGUAGAAGGUACAUGAGGAUCACCCAUGUUGGUUGUUUUU [JR_BME4_Sub030] (puzzle: Brourd's mod of Exclusion 4)	24.3 nM	–	–	–
UUUGUUGUUGUGAGGAUAUCGUAGUUAUUUUGUAACGAGAAGGCACAUGAGGAUCACCCAUGUUUUUUGAUGGU [JR_BMOE4_Sub063] (puzzle: Brourd's mod of Exclusion 4)	24.9 nM	–	–	–
UUUGUUUUGCAAGGAUAUGUUUAAUUUUAGUUUCCUUACACAUGAGGAUCACCCAUGUUAUACUUACAGAAGGUGCGUAAUUUU [Excl-NG2-LRO02] (Eterna round: R96, puzzle: Exclusion NG 2)	–	–	–	apparent KD of MS2 coat protein [4]: 104 nM
UUUUAACAUGAGGAUCACCCAUGUGAGGAUAUCCUAUUUUUUUUUUUUUUUUUUUUUUGGAGAAGGCACAUUUU [My solution] (puzzle: Exclusion 1)	38.3 nM	–	–	apparent KD of MS2 coat protein [1]: 23.1 nM; apparent KD of MS2 coat protein [3]: 7.45 nM
UUUUAACAUGAGGAUCACCCAUGUGAGGAUAUCGAAAUUUAUAUUAAUAUUAAUAAUACGAGAAGGCACAUUUU [JMF 22] (puzzle: Exclusion 1)	71 nM	–	–	–
UUUUAACAUGAGGAUCACCCAUGUGAGGAUAUCGAAAUUUAUAUUAAUAUUAUUAAAUCGAGAAGGCACAUUUU [JMF 36] (puzzle: Exclusion 1)	104 nM	–	–	–
UUUUAACAUGAGGAUCACCCAUGUGAGGAUAUCGAAAUUUAUAUUAAUAUUAUUUUUACGAGAAGGCACAUUUU [JMF 50] (puzzle: Exclusion 1)	99.2 nM	–	–	–
UUUUAACAUGAGGAUCACCCAUGUGAGGAUAUCGAAAUUUAUAUUAAUAUUUAUUAUUCGAGAAGGCACAUUUU [JMF 61] (puzzle: Exclusion 1)	119 nM	–	–	–
UUUUAACAUGAGGAUCACCCAUGUGAGGAUAUCGAAAUUUAUAUUAAUAUUUUUAUAACGAGAAGGCACAUUUU [JMF 71] (puzzle: Exclusion 1)	64.8 nM	–	–	–
UUUUAACAUGAGGAUCACCCAUGUGAGGAUAUCGAAAUUUAUAUUUAUAUUAAUUAAACGAGAAGGCACAUUUU [JMF 83] (puzzle: Exclusion 1)	74 nM	–	–	–
UUUUAACAUGAGGAUCACCCAUGUGAGGAUAUCGAUUUUUUUAUUAAUAUUAAUAAAACGAGAAGGCACAUUUU [JMF 19] (puzzle: Exclusion 1)	73.5 nM	–	–	–
UUUUAACAUGAGGAUCACCCAUGUGAGGAUAUCGUUUUUUUUUUUUUUUUUUUUUUUUCGAGAAGGCACAUUUU [My solution] (puzzle: Exclusion 1)	84 nM	–	–	apparent KD of MS2 coat protein [1]: 127 nM; apparent KD of MS2 coat protein [3]: 14 nM
UUUUACAAGCUAAGAUCCUACAUGAGGAUCACCCAUGUGGUCCGGUGACGUGAGUCACCGGACUUAGCUCGUCUUGA [salish99_S_TOV1_R5_085] (Eterna round: R97, puzzle: Sensor, turn-off variant 1)	–	38.9 nM	40.4 nM	–
UUUUACCGAGGAUAUACAUUUUUUUUAUUAUCCUCAUUAUUACAUGAGGAUCACCCAUGUAGAAGGCGGAUUUU [My Design] (puzzle: Exclusion 2)	56.9 nM	–	–	–
UUUUAGCAAGCGAGAUCCCACAUGAGGAUCACCCAUGUGCAUCCAGAAUUACUUUUUGCAUAAGCUCGUCUUAUAUA [JR_STOV1_v2_Sub080] (Eterna round: R97, puzzle: Sensor, turn-off variant 1)	–	58.8 nM	64.5 nM	–
UUUUCACAUGAGGAUCACCCAUGUGAGGAUAUGGAUUCGCUGGCCGUAGCCAGUGGAUCCAGAAGGCGCAUGAU [JL-ex1-4.06] (Eterna round: R97, puzzle: Exclusion 1)	–	36 nM	32.8 nM	–
UUUUCCAGAGGAUAUGCGAAUAAAUAAAACUUUUUUUUUUAACAUGAGGAUCACCCAUGUAGAAGGCUGCUUUU [Ex2 #27] (Eterna round: R97, puzzle: Exclusion 2)	–	27.1 nM	30.1 nM	–
UUUUGGCAAGCGAGAUCCUACAUGAGGAUCACCCAUGUUGACCAUGGUUUCCAUGGUCUUUUUGCUCGUCUUGUGUG [jl TITIN mod 3] (Eterna round: R97, puzzle: Sensor, turn-off variant 1)	–	21.1 nM	23.1 nM	–
UUUUUACAUGAGGAUCACCCAUGUCAGGAUAUGCUUAUAUUUUAUUAUUUUAUUUUUUGCAGAAGGGACUAUUA [My solution] (Eterna round: R96, puzzle: Exclusion 1)	–	130 nM	118 nM	apparent KD of MS2 coat protein [4]: 80.4 nM
UUUUUACAUGAGGAUCACCCAUGUCAGGAUAUGCUUAUAUUUUAUUAUUUUAUUUUUUGCAGAAGGGACUAUUA [My solution] (puzzle: Exclusion 1)	80 nM	–	–	–
